Results reported in patent US9777044B2, “GLUT-1 as a receptor for HTLV envelopes and its uses” (CENTRE NATIONAL DE LA RECHERCHE SCIENTIFIQUE (CNRS), priority 2003, dated 2017).

How the values were obtained:
293T cells = experiment: Hexose uptake assay: fructose; type: cell-based, human; settings: transfected 293T cells
Description: Assay of hexose uptake. 2-deoxy-D[1-^3H]glucose, D[U-^14C]fructose and 3-O-[^14C]methyl-D-glucose were obtained from Amersham. Hexose uptake assay were adapted from Harrison et al. 1991). After transfection, approximately 250,000 were seeded/well in 24-well plates. […] Uptake was initiated by adding labeled hexoses to a final concentration of 0.1 mM (2 μCi/ml for 2-2-deoxy-D[1-^3H]glucose and 0.2 μCi/ml for D[U-^14C]fructose and 3-O-[^14C]methyl-D-glucose) and cells were incubated for 5′ additional minutes. Cells were then resuspended in 500 μl cold serum-free glucose-free DMEM, wash one time in serum-free glucose-free DMEM, and solubilized in 400 μl of 0.1% SDS. 3 μl was used for Bradford normalization, while the rest was used for detection of either ^3H or ^14C by liquid scintillation in a Beckman counter.

human erythrocytes = experiment: RBD binding on freshly isolated human erythrocytes; settings: freshly isolated red blood cells
Description: Binding assays. Binding assays were carried out as previously described [Manel, 2003]. Briefly, 5×10^5 cells (293T, HeLa, Jurkat or freshly isolated human erythrocytes) were incubated with 500 μl of H1RBD, H2RBD or ARBD supernatants for 30 min at 37° C., washed with PBA (1% BSA, 0.1% sodium azide in PBS), and incubated with a sheep anti-rabbit IgG antibody conjugated to fluorescein isothiocyanate (Sigma). […] Binding was analyzed on a FACSCalibur (Becton Dickinson) and data analysis was performed using CellQuest (Becton Dickinson) and WinMDI (Scripps) softwares.

GLUT-1 [1] = biological target: T1, GLUT-1 (Homo sapiens, UniProt P11166); experiment: RBD binding to cells overexpressing GLUT-1
T1 construct: factor Xa cleavage site (C); His (C); expressed in transfected cells
T1 sequence (P11166 1-492): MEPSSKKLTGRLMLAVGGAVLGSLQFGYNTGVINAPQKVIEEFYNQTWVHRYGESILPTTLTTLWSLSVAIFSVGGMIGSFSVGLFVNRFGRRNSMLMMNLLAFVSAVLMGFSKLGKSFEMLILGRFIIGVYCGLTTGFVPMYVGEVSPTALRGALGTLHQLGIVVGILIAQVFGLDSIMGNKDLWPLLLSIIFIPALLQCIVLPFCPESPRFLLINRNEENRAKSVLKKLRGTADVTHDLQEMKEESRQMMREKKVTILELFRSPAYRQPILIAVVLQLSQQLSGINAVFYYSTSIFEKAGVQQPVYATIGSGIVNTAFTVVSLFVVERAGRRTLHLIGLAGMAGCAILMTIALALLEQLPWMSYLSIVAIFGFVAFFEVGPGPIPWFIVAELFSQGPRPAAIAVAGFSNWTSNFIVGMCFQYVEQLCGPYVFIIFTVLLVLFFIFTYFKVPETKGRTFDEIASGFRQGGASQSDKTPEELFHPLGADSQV
Text: In order to directly test the ability of HTLV envelopes to bind GLUT-1, we derived a tagged GLUT-1 expression vector and overexpressed this protein in HeLa cells. […] GLUT-3 is the closest isoform to GLUT-1, and transports glucose with kinetics similar to that of GLUT-1. Thus, we derived a tagged GLUT-3 expression vector. […] To determine if GLUT-1 transfected cells were directly responsible for the observed increased in H1RBD binding, we derived fluorescent tagged GLUT-1 and GLUT-3 to uniquevocally identity GLUT-overexpressing cells in the course of our FACS analysis. […] Consequently, we tested if HTLV glycoproteins directly interact with GLUT-1 proteins. To this end, we evaluated the ability of H1RBD to immunoprecipitate GLUT-1. […] Therefore, the GLUT-1 glucose transporter is an essential component of the HTLV envelope receptor.
Expression vectors. Full length envelope expression vectors for HTLV-1 (pCEL/2[Denesvre, 1995]) and Friend ecotropic MLV (pCEL/F [Denesvre, 1995]), have been previously described. For the HTLV-2 envelope, a fragment from pHTE2 [Rosenberg, 1998] encompassing the tax, rex and env genes and the 3′ LTR was inserted in the pCSI [Battini, 1999] vector (pCSIX.H2). Full length envelope expression vectors for amphotropic MLV (pCSI.A), or devoid of its R peptide (pCSI.AΔR), and H183FEnv that contains the N-terminal 183 amino acids of the HTLV-1 receptor-binding domain in the F-MLV envelope background, as well as truncated envelope expression vectors, derived from pCSI and encoding either of the first 215 residues of HTLV-1 SU (H1RBD), the first 178 residues of HTLV2-SU (H2RBD) or the first 397 residues of the amphotropic murine leukemia virus (MLV) SU (Amp), fused to a C-terminal rabbit IgG Fc tag (rFc) or to EGFP (H2RBD-GFP). All point mutations introduced in HTLV-1 and -2 RBD constructs were generated using the quickchange site-directed mutagenesis method and mutations were verified by sequencing. Human Glut-1 and Glut-3 cDNA were amplified by PCR from the pLib HeLa cDNA library (Clontech), and inserted into pCHIX, a modified version of the pCSI vector that contains a cassette comprising a factor Xa cleavage site, two copies of the hemagglutinin (HA) tag, and a histidine tag. The resulting construct (pCHIX.hGLUT1) encodes a GLUT-1 protein with a HA-His tag at the C-terminal end. GLUT-1 and GLUT-3 were also inserted in a modified pCSI vector containing a DsRed2 C-terminal tag. Similarly, human CD147 was amplified from 293T total RNA by RT-PCR and inserted into the pCHIX backbone in frame with the HA-His tag (pCHIX.hCD147).
Binding assays. […] Binding was analyzed on a FACSCalibur (Becton Dickinson) and data analysis was performed using CellQuest (Becton Dickinson) and WinMDI (Scripps) softwares.

PiT2 = experiment: RBD binding to cells overexpressing PiT2
GLUT-1 [2] = biological target: T1, GLUT-1; experiment: Immunoprecipitation of GLUT-1-HA with anti-rabbit-Fc beads; type: binding; settings: co-expression with GLUT-1 in 293T cells, probed with anti-HA antibody
Text: FIGS. 4a-4c GLUT-1 is a receptor for HTLV envelopes. FIG. 4a, Binding of H1RBD, H2RBD, H2RBD D102A mutant, and ARBD to control 293T cells or 293T cells overexpressing either GLUT-1 or PiT2. FIG. 4b, Binding of H2RBD-EGFP to cells overexpressing GLUT-1-HA or GLUT-3-HA, and corresponding immunoblots using an anti-HA antibody. FIG. 4c, Immunoprecipitation of GLUT-1-HA from 293T cells transfected with either an irrelevant construct, GLUT-1 alone, H1RBD alone, H1RBD Y114A alone, GLUT-1 with H1RBD or GLUT-1 with H1RBD Y114A expression vectors Immunoprecipitation was performed using anti-rabbit-Fc beads and probed with an anti-HA antibody. Total cell extracts were blotted using an anti-rabbit Fc or an anti-HA antibody.
In order to directly test the ability of HTLV envelopes to bind GLUT-1, we derived a tagged GLUT-1 expression vector and overexpressed this protein in HeLa cells. […] GLUT-3 is the closest isoform to GLUT-1, and transports glucose with kinetics similar to that of GLUT-1. Thus, we derived a tagged GLUT-3 expression vector. […] To determine if GLUT-1 transfected cells were directly responsible for the observed increased in H1RBD binding, we derived fluorescent tagged GLUT-1 and GLUT-3 to uniquevocally identity GLUT-overexpressing cells in the course of our FACS analysis. […] To this end, we evaluated the ability of H1RBD to immunoprecipitate GLUT-1. […]

B1: H1RBD: first 215 residues of HTLV-1 SU fused to a C-terminal rabbit IgG Fc tag (rFc) (protein)
chain: DYSPSCCTLTIGVSSYHSKPCNPAQPVCSWTLDLLALSADQALQPPCPNLVSYSSYHATYSLYLFPHWIKKPNRNGGGYYSASYSDPCSLKCPYLGCQSWTCPYTGAVSSPYWKFQQDVNFTQEVSRLNINLHFSKCGFPFSLLVDAPGYDPIWFLNTEPSQLPPTAPPLLPHSNLDHILEPSIPWKSKLLTLVQVDVPRDCGCKPCICTVPEVSSVFIFPPKPKDVLTITLTPKVTCVVVDISKDDPEVQFSWFVDDVEVHTAQTQPREEQFNSTFRSVSELPIMHQDWLNGKEFKCRVNSAAFPAPIEKTISKTKGRPKAPQVYTIPPPKEQMAKDKVSLTCMITDFFPEDITVEWQWNGQPAENYKNTQPIMDTDGSYFVYSKLNVQKSNWEAGNTFTCSVLHEGLHNHHTEKSLSHSPGK
In the case of B1, the Fructose uptake (293T cells) is reported as “not altered”, the “binding on human erythrocytes” value (human erythrocytes) is reported as “strikingly efficient” and the “H1RBD binding to cells overexpressing GLUT-1-DsRed2” value (GLUT-1 [1]; fluorescent tagged GLUT-1, FACS analysis) is reported as “significant increase”. For the same molecule, the “binding upon GLUT-1 overexpression” value (GLUT-1 [1]; tagged GLUT-1 expression vector, HeLa cells / 293T cells (FIG. 4a legend)) was “dramatically increased”, the “binding upon overexpression of PiT2” value (PiT2) was “remained at background levels” and the “detection of GLUT-1 upon immunoprecipitation with anti-rabbit-Fc-beads” value (GLUT-1 [2]) was “readily detected”.
